From PMC3386781
Residue numbers refer to the chain shown, from its start. Names and notes keep the numbering of the source.

B1: AtHTMT1 (AtHOL1; halide/thiocyanate methyltransferase, HTMT) (Arabidopsis thaliana) (protein)
chain: MAEEQQNSDQSNGGNVIPTPEEVATFLHKTVEEGGWEKCWEEEITPWDQGRATPLIVHLVDTSSLPLGRALVPGCGGGHDVVAMASPERFVVGLDISESALAKANETYGSSPKAEYFSFVKEDVFTWRPTELFDLIFDYVFFCAIEPEMRPAWAKSMYELLKPDGELITLMYPITDHVGGPPYKVDVSTFEEVLVPIGFKAVSVEENPHAIPTRKGKEKLGRWKKIN
B2: AtHTMT1 (AtHOL1; halide/thiocyanate methyltransferase, HTMT) (Arabidopsis thaliana; Y172F) (protein)
chain: B1 chain with Y172F
B3: AtHTMT1 (AtHOL1; halide/thiocyanate methyltransferase, HTMT) (Arabidopsis thaliana; V23C) (protein)
chain: B1 chain with V23C

Assays:
purified protein [1] = substrate: Br; test: purified protein; details: co-substrate SAM; tag removed
purified protein [2] = substrate: N#CS; test: purified protein; details: co-substrate SAM; tag removed

Row | Protein | Km (purified protein [1]) [mM] | Vmax (purified protein [1]) [µmol/min/mg] | Km (purified protein [2]) [mM] | Vmax (purified protein [2]) [µmol/min/mg]
1 | B1 | 24.87 ± 2.785 | 0.0114 | 0.099 ± 0.020 | 0.0436
2 | B2 | 30.16 ± 2.942 | 0.0114 | 0.141 ± 0.009 | 0.046
3 | B3 | 21.06 ± 1.883 | 0.0124 | 0.103 ± 0.009 | 0.0434
